B1: TPR t1 (parent)
chain: GACCAAUCUGCCCUCAGAGCUCGAGAACAUCUUCGGAUGCAGAGGAGGCAGGCUUCGGUGGCGCGAUAGCGCCAACGUCCUCAACCUCCAAUGCAUCCCACCACAUGAUGAUGCCUGAAGAGCCUUGGUUUUUUG

Variants of: B1
Assay: polymerase ribozyme fitness, log enrichment relative to wild type (log ratio); higher = more active; in vitro selection for triplet polymerase activity
Outline: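 After PCR construction and transcription, each subunit's mutant library from a heterodimeric triplet polymerase ribozyme was annealed with a biotinylated primer, the partner subunit and triplets. Incubation was frozen, at −7 °C, and extended constructs were gel-excised, bound to streptavidin beads and amplified by RT-PCR, in one selection round done in triplicate. Fitness is the logarithm of a genotype's enrichment divided by that of the wild type, from inverse-variance-weighted replicate averages of Illumina-sequenced inputs and outputs. The base of the logarithm is 2, and genotypes needed ≥10 input reads and ≥1 read per output.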

Variant	polymerase ribozyme fitness (log ratio)
G17C C73A U125A	-5.15
A16U U106A	-2.08
G17A G69U	-1.14
A16C U109A U116G	-6.51
A16C U33C C62G U81A A108G G120A C123G	-6.36
A16G U21C G48A A100C C123A	-4.34
G17C A18G G42U C80U U112C	-0.371
A16U G117U C123A	-4.24
A16U C70G C79U C94U	-2.44
A16U G52A	-2.03
A16U G93A U133A	-2.82
A16C G45C G63A A100C U112C U129G	-2.73
A16U G17A C49U G57U A90U	-5.5
A16U A46C C94U G120C	-0.971
A16C A50U U54A C86G	-5.88
G17C G39A C64U	-4.45
A16G A41U C72U U106C G120C	-1.7
A16G A50U C53A G63U A100C C114G A121C	-7.46
C15U U32C	-1.42
C15U U78G C114U	-4.55
A16G A50U	-2.5

Variant	polymerase ribozyme fitness (log ratio)
A16U A26G C88U C124G	-1.11
C15U G117C	-2.96
C15U G117U	-3.29
A16U G61C G117C C124G	-4.49
A16U G110A U132C	-2.1
A16C U87C	-2.31
C15U G127U	-2.39
A16G G39A C114U	-4.17
C15U G60U C123U	-0.514
C15U U59G U96C C102A G120C U133A	-2.28
G17A U55A C72A A84G	-5.99
G17A U112A	-1.5
A16U A26G C56U C88U C124G	-1.25
A16C C70U C85G	-3.97
A16U G61C U130G	-2.75
C15U G77A U87G U125A	-2.39
G17A C28U C62U U109A U116G	-5.8
C15U G57A G58A U109G G113A	-7.08
A16G G61A	-1.13
A16G G48C G60A	-1.87
G17A C62G G63A A74C A90C U109G	-5.9

Variant	polymerase ribozyme fitness (log ratio)
G17A C114A	-5.13
A16C C64U U78C U87A G113U U116A	-7.76
A16C C49A	-3.04
A16U C70A A74U	-4.08
G17A C62A	-4.08
G17A C62U	-3.04
A16U A75G A83U A100U G110A	-4.47
G17C C123A	-2.92
A16U G48U C62G C85A	-3.66
A16G G36U G69C A121U	-1.25
G17A C88U U96C	-3.71
A16U G42U U130C	-3.77
A16U G47U G52A	-4.24
A16U C82G U87A	-3.81
G17A A83G	-3.95
C15U G47C G48U C62G A100U C124U	-5.24
A16U C40A A100U	-3.86
A16G C40U A50U U55G C70U C79U U92C U112A	-7.45
A16C G47U	-3.93
G17A G120C G127U	-1.24
A16G A27U	-4.63

Variant	polymerase ribozyme fitness (log ratio)
A16U A37C C73G U112C U133G	-1.75
A16U C64A C89A A111G U130G	-5.81
G17A A74U	-4.06
G17C C20G C73A C88U C99A A100C	-4.19
A16U A83C G120U C123A G127C U131A	-1.95
G17A G36C	-3.9
A16C C53A C56A G60A	-4.12
A16U G47U G52U C115U G117C	-5.71
G17A A18C C22U G35A C70A C79G A90G C99A C124G	-5.86
C15U U21C C49G C62A G117A	-1.27
G17A U78A G117A	-2.6
A16U C40U C82U	-2.7
G17A C89G	-3.97
G17A C89U	-3.72
A16C C56G A121C	-1.27
G17A A37U C115U	0.842
A16U G63U G113U	-5.93
G17A G47U U54C G71C G77U G117C	-8.04
A16G U116C	1.6
A16G A37G	-1.71
G17A C72G C124G	-0.994

— the RNAGym collection of RNA variant scans (doi:10.1073/pnas.2313332121)
